Results from patent publication US20200102347A1 (AUCTUS BIOLOGIES, published 2020).
No end group written: not given here. *: point of attachment. RhodamineB = CCN(CC)c1ccc2c(-c3ccccc3C(=O)*)c3ccc(=[N+](CC)CC)cc-3oc2c1

How the values were obtained:
[1] = target: T1, NativeRPtag(large)_with_Tags_and_Cys (Thermoanaerobacter tengcongensis); assay: fluorescence anisotropy
T1 construct: Unlabeled in anisotropy assays; coupled through the engineered N-terminal Cys to SulfoLink agarose or maleimide plates in column, pull-down and ELISA assays
T1 chain: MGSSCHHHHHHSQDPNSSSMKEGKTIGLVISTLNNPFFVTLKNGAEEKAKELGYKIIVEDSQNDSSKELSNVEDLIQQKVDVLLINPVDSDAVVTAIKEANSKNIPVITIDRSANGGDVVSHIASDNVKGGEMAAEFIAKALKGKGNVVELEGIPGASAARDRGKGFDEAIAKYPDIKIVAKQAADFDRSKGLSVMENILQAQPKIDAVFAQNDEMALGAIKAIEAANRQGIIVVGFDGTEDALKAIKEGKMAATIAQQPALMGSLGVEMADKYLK

[2] = target: T1, NativeRPtag(large)_with_Tags_and_Cys; assay: calculated from koff and Kd
[3] = target: T1, NativeRPtag(large)_with_Tags_and_Cys; assay: fluorescence anisotropy, competitor chase
[4] = target: T1, NativeRPtag(large)_with_Tags_and_Cys; assay: fluorescence anisotropy, association kinetics

RPtag(small) Nd2, k3a, e18a (peptide) showed a Kd [1] of 0.88 nM, a kon [2] of 433000 M⁻¹ s⁻¹ and a koff [3] of 0.000533 s⁻¹.

With RhodamineB-PNFIPAELKLITKENVQ [RPtag(small) Nd4] the Kd [1] was 0.3 nM, the kon [2] was 1.57e+06 M⁻¹ s⁻¹ and the koff [3] was 0.000467 s⁻¹.

RhodamineB-GEKIPNFIPAELKLIT [RPtag(small) Cd5] gave a Kd [1] of 3.6 nM, a kon [2] of 1.83e+06 M⁻¹ s⁻¹ and a koff [3] of 0.0065 s⁻¹.

Molecule RhodamineB-IANFIPAELKLITKANVQ [RPtag(small) Nd3, p5a, e18a] has a Kd [1] of 0.63 nM, a kon [2] of 1.53e+06 M⁻¹ s⁻¹ and a koff [3] of 0.000967 s⁻¹.

For RhodamineB-PAELKLITKE [RPtag(small) Nd8, Cd3], the Kd [1] was 11 nM, the koff [3] was > 0.0333 s⁻¹ and the “Keq (S-S*)” value [4] was 6.5. The “kf (S to S*)” value [4] was 0.095 min⁻¹ and the “kr (S* to S)” value [4] was 0.015 min⁻¹.

For RhodamineB-PAELKLITKA [RPtag(small) Nd8, Cd3, e18a], the Kd [1] was 13 nM and the koff [3] was > 0.0333 s⁻¹.

With RhodamineB-FIPAELKLITK [RPtag(small) Nd6, Cd4] the Kd [1] was 9.9 nM and the koff [3] was > 0.0333 s⁻¹.

Molecule RhodamineB-AIANFIPAELKLITKENVQ [RPtag(small) Nd2, k3a, p5a] has a Kd [1] of 0.55 nM, a kon [2] of 400000 M⁻¹ s⁻¹ and a koff [3] of 0.00015 s⁻¹.

RhodamineB-NFIPAELKLITKENVQ [RPtag(small) Nd5] was tested, and the Kd [1] was 0.59 nM, the kon [2] was 1.6e+06 M⁻¹ s⁻¹ and the koff [3] was 0.000933 s⁻¹.

Molecule RhodamineB-KIPNFIPAELKLITKANVQ [RPtag(small) Nd2, e18a] has a Kd [1] of 0.13 nM, a kon [2] of 1.08e+06 M⁻¹ s⁻¹ and a koff [3] of 0.000138 s⁻¹. The “Keq (S-S*)” value [4] was 0.4, the “kf (S to S*)” value [4] was 0.044 min⁻¹ and the “kr (S* to S)” value [4] was 0.13 min⁻¹.

In the case of RhodamineB-RIANFIPAELKLITKANVQ [RPtag(small) Nd2, k3r, p5a, e18a], the Kd [1] is reported as 0.26 nM, the kon [2] is reported as 567000 M⁻¹ s⁻¹ and the koff [3] is reported as 0.000217 s⁻¹.

In the case of RhodamineB-KIPNFIPAELKLITKENVQ [RPtag(small) Nd2], the Kd [1] is reported as 0.067 nM, the kon [2] is reported as 883000 M⁻¹ s⁻¹ and the koff [3] is reported as 5.83e-05 s⁻¹. For the same molecule, the “Keq (S-S*)” value [4] was 0.7, the “kf (S to S*)” value [4] was 0.063 min⁻¹ and the “kr (S* to S)” value [4] was 0.086 min⁻¹.

RhodamineB-IPNFIPAELKLITKENVQ [RPtag(small) Nd3] gave a Kd [1] of 0.14 nM, a kon [2] of 1.47e+06 M⁻¹ s⁻¹ and a koff [3] of 0.0002 s⁻¹.

RhodamineB-GAKIPNFIPAELKLITKENVQ [RPtag(small) e2a] gave a Kd [1] of 0.1 nM, a kon [2] of 850000 M⁻¹ s⁻¹ and a koff [3] of 8.83e-05 s⁻¹. The “Keq (S-S*)” value [4] was 1.9, the “kf (S to S*)” value [4] was 0.084 min⁻¹ and the “kr (S* to S)” value [4] was 0.044 min⁻¹.

For RhodamineB-GEAIPNFIPAELKLITKENVQ [RPtag(small) k3a], the Kd [1] was 0.49 nM, the kon [2] was 183000 M⁻¹ s⁻¹ and the koff [3] was 8.83e-05 s⁻¹.

In the case of RhodamineB-GEKIPNFIPAELKAITKENVQ [RPtag(small) l14a], the Kd [1] is reported as 8.9 nM, the koff [3] is reported as > 0.0333 s⁻¹ and the “Keq (S-S*)” value [4] is reported as 1.8. The “kf (S to S*)” value [4] was 0.075 min⁻¹ and the “kr (S* to S)” value [4] was 0.044 min⁻¹.

RhodamineB-GEKIPNAIPAELKLITKENVQ [RPtag(small) f7a] showed a Kd [1] of 2 nM, a kon [2] of 517000 M⁻¹ s⁻¹ and a koff [3] of 0.00105 s⁻¹. For the same molecule, the “Keq (S-S*)” value [4] was 2.2, the “kf (S to S*)” value [4] was 0.08 min⁻¹ and the “kr (S* to S)” value [4] was 0.036 min⁻¹.

In the case of RhodamineB-GEKIPNFIPAELKLITAENVQ [RPtag(small) k17a], the Kd [1] is reported as 0.54 nM, the kon [2] is reported as 167000 M⁻¹ s⁻¹ and the koff [3] is reported as 9.5e-05 s⁻¹.

Molecule RhodamineB-GEKIPNFIPAELKLITKANVQ [RPtag(small) e18a] has a Kd [1] of 0.056 nM, a kon [2] of 2.67e+06 M⁻¹ s⁻¹ and a koff [3] of 0.000145 s⁻¹. The “Keq (S-S*)” value [4] was 1.1, the “kf (S to S*)” value [4] was 0.054 min⁻¹ and the “kr (S* to S)” value [4] was 0.048 min⁻¹.

RhodamineB-GEKIPNFIPAALKLITKENVQ [RPtag(small) e11a] was tested, and the Kd [1] was 0.8 nM, the kon [2] was 76700 M⁻¹ s⁻¹ and the koff [3] was 0.000112 s⁻¹. For the same molecule, the “Keq (S-S*)” value [4] was 1.9, the “kf (S to S*)” value [4] was 0.08 min⁻¹ and the “kr (S* to S)” value [4] was 0.042 min⁻¹.

RhodamineB-GEKIPNFIPAELKL [RPtag(small) Cd7] was tested, and the Kd [1] was 30000 nM and the koff [3] was > 0.0333 s⁻¹.

For RhodamineB-ELKLIT [RPtag(small) Nd10, Cd5], the Kd [1] was 250 nM and the koff [3] was > 0.0333 s⁻¹.

RhodamineB-KLITKENVQ [RPtag(small) Nd12] was tested, and the Kd [1] was 520 nM and the koff [3] was > 0.0333 s⁻¹.

RhodamineB-AELKLITKENVQ [RPtag(small) Nd9] gave a Kd [1] of 4.9 nM, a kon [2] of 1.37e+06 M⁻¹ s⁻¹ and a koff [3] of 0.00667 s⁻¹.

With RhodamineB-ELKLITKE [RPtag(small) Nd10, Cd3] the Kd [1] was 57 nM, the koff [3] was > 0.0333 s⁻¹ and the “kf (S to S*)” value [4] was 0.32 min⁻¹. For the same molecule, the “kr (S* to S)” value [4] was 0.05 min⁻¹.

In the case of RhodamineB-ELKLITKA [RPtag(small) Nd10, Cd3, e18a], the Kd [1] is reported as 71 nM and the koff [3] is reported as > 0.0333 s⁻¹.

In the case of RhodamineB-FIPAELKLITKE [RPtag(small) Nd6, Cd3], the Kd [1] is reported as 7.3 nM and the koff [3] is reported as > 0.0333 s⁻¹.

With RhodamineB-FIPAELKLITKA [RPtag(small) Nd6, Cd3, e18a] the Kd [1] was 8.2 nM and the koff [3] was > 0.0333 s⁻¹.

RhodamineB-ELKLITKENVQ [RPtag(small) Nd10] gave a Kd [1] of 5.9 nM, a kon [2] of 717000 M⁻¹ s⁻¹ and a koff [3] of 0.00417 s⁻¹.

In the case of RhodamineB-LKLITKENVQ [RPtag(small) Nd11], the Kd [1] is reported as 16 nM, the kon [2] is reported as 1.18e+06 M⁻¹ s⁻¹ and the koff [3] is reported as 0.02 s⁻¹.

RhodamineB-LITKENVQ [RPtag(small) Nd13] was tested, and the Kd [1] was 84000 nM and the koff [3] was > 0.0333 s⁻¹.

RhodamineB-FIPAELKLITKENVQ [RPtag(small) Nd6] showed a Kd [1] of 0.54 nM, a kon [2] of 2e+06 M⁻¹ s⁻¹ and a koff [3] of 0.00108 s⁻¹.

In the case of RhodamineB-PAELKLITKENVQ [RPtag(small) Nd8], the Kd [1] is reported as 0.59 nM, the kon [2] is reported as 1.55e+06 M⁻¹ s⁻¹ and the koff [3] is reported as 0.000917 s⁻¹.

RhodamineB-IPAELKLITKENVQ [RPtag(small) Nd7] showed a Kd [1] of 2.4 nM, a kon [2] of 300000 M⁻¹ s⁻¹ and a koff [3] of 0.0007 s⁻¹.

For RhodamineB-GEKIPNFIPAELKLI [RPtag(small) Cd6], the Kd [1] was 200 nM and the koff [3] was > 0.0333 s⁻¹.
